Data on one substance can be found in US9974753B2, “Nanoparticles comprising a vegetable hydrophobic protein and a water miscible non-volatile organic solvent and uses thereof” (BIONANOPLUS, S.L., priority 2012, dated 2018).

A short description of this series: Solubility of zein in PG binary solvent mixtures (turbidity change at 405 nm). Format: physicochemical. On the procedure: The solubility of zein in different binary mixtures of PG and other water miscible non-volatile organic solvents that are miscible with PG was studied. This example studies the incorporation of different surfactants or solvents to enhance the solubility of a molecule in PG, if necessary. For this purpose, turbidity change of PG zein solution was monitored at 405 nm after the addition of different amounts of water, glycerol, Labrasol®, Tween® 80 or Lutrol® L 44 to 5 mL of zein solution in PG (2.5% w/v), at room temperature. The end point zone, at which zein was precipitated from PG solution, was calculated monitoring the turbidity change at 405 nm, that is, the absorbance increase (in percentage) after each solvent/surfactant addition with respect to the initial absorbance value in a spectrophotometer (Labsystems iEMS Reader MF, Finland).

For the substance zein, the “End point range of zein precipitation from PG solution” value is 65-75 % (v/v) (Tween® 80 added to zein 2.5% w/v in PG) and 45-55 % v/v (glycerol added to zein 2.5% w/v in PG).
